{"source": "paper PMC8294337", "about": "(BBA advances, 2021)", "target": "the molecule itself", "assay": "SDS-PAGE"}
{"protein": "T74S KcsA (pH-gated potassium channel KcsA with the mutation T74S) (natural protein, UniProt P0A334 1-160, looked up) MPPMLSGLLARLVKLLLGRHGSALHWRAAGAATVLLVIVLLAGSYLAVLAERGAPGAQLITYPRALWWSVETASTVGYGDLYPVTLWGRLVAVVVMVAGITSFGLVTAALATWFVGREQERRGHFVRHSEKAAEEAYTRTTRALHERFDRLERMLDDNRR", "values": [{"measurement": "stoichiometry N", "result": 4}]}
